Assay results published in the RNAGym collection of RNA variant scans (doi:10.7554/elife.80360).

B1: CPEB3 Ribozyme (parent)
chain: GGGGGCCACAGCAGAAGCGUUCACGUCGCGGCCCCUGUCAGAUUCUGGUGAAUCUGCGAAUUCUGCUGU

Variants of: B1
Test: self-cleavage, relative activity (ratio to wild type); higher = more cleavage; co-transcriptional

| Variant | self-cleavage |
| --- | --- |
| G31U C34A | 0.232 |
| G31U C34G | 0.237 |
| G30C G68A | 0.899 |
| G30C G68C | 0.905 |
| G30C G68U | 0.938 |
| G31C A60U | 0.144 |
| G31C A60G | 0.226 |
| G31C A60C | 0.21 |
| G30C U38A | 0.314 |
| G30C U38C | 0.379 |
| G30C U38G | 0.204 |
| G31C U53A | 0.208 |
| G31A U64G | 0.728 |
| G31A U36G | 0.268 |
| G31A U36C | 0.669 |
| G31A U36A | 0.218 |
| G31C C66G | 0.155 |
| G31C C66A | 0.252 |
| G31C C66U | 0.264 |
| G30U A51U | 0.345 |
| G30U A51C | 0.306 |
| G30U A51G | 0.4 |
| G30C U49G | 0.564 |
| G30C U49A | 0.686 |

| Variant | self-cleavage |
| --- | --- |
| G30C U49C | 0.721 |
| G30U A52C | 0.395 |
| G30U A52G | 0.287 |
| G30U U38C | 0.253 |
| G30U U38G | 0.153 |
| G30U U38A | 0.201 |
| G31A G68C | 1.02 |
| G31A G68U | 1 |
| G31A G68A | 1.03 |
| G30U A40G | 0.341 |
| G30U U53A | 0.297 |
| G30U U53C | 0.276 |
| G30U U53G | 0.241 |
| G31A A42G | 0.794 |
| G31A A42U | 0.638 |
| G30C U46G | 0.69 |
| G31C G50U | 0.238 |
| G31C G50C | 0.245 |
| G31C C39A | 0.186 |
| G31C C39G | 0.235 |
| G31C C39U | 0.197 |
| G31C U49A | 0.286 |
| G31C U49G | 0.175 |
| G31C U49C | 0.178 |

| Variant | self-cleavage |
| --- | --- |
| G31A A60G | 0.475 |
| G30U | 0.411 |
| G30U G37A | 0.159 |
| G30U G37C | 0.186 |
| G30C U69A | 0.88 |
| G30C U69G | 0.96 |
| G30C U69C | 0.995 |
| G31A C66G | 0.707 |
| G30U U61C | 0.243 |
| G30U A60C | 0.173 |
| G30U A60U | 0.213 |
| G31C A59C | 0.178 |
| G31C A59U | 0.24 |
| G31C G56C | 0.139 |
| G31C G56U | 0.164 |
| G31C G56A | 0.2 |
| G30C G41A | 0.298 |
| G30C U53G | 0.46 |
| G30C U53C | 0.44 |
| G31C U67A | 0.277 |
| G31C U67G | 0.355 |
| G30C U36A | 0.192 |
| G30C U36G | 0.188 |
| G31C U44A | 0.257 |

| Variant | self-cleavage |
| --- | --- |
| G31C U44G | 0.242 |
| G31A G37C | 0.231 |
| G31A G37A | 0.193 |
| G31C | 0.255 |
| G31U | 0.782 |
| G31A | 0.931 |
| G30U G56C | 0.196 |
| G30U G56A | 0.218 |
| G31A C33U | 0.587 |
| G31A C33A | 0.266 |
| G31U C63U | 0.602 |
| G30U U55A | 0.304 |
| G30U U55C | 0.287 |
| G30U U55G | 0.232 |
| G31U C45G | 0.559 |
| G31U C45A | 0.662 |
| G31C G37U | 0.203 |
| G31C G37C | 0.217 |
| G31C G37A | 0.19 |
| G31A G58A | 0.741 |
| G31U C39U | 0.357 |
| G31U C39G | 0.437 |
| G31U C39A | 0.319 |
| G30C U43C | 0.587 |

| Variant | self-cleavage |
| --- | --- |
| G30C U43G | 0.369 |
| G31A A52C | 0.82 |
| G31U G41U | 0.398 |
| G31A U69G | 1.02 |
| G31U A59U | 0.334 |
| G30U C34G | 0.193 |
| G30U C34U | 0.323 |
| G30U G68C | 0.825 |
| G31C U62G | 0.228 |
| G30U A42U | 0.247 |
| G30U A42C | 0.282 |
| G31A U49G | 0.812 |
| G31A U49C | 0.938 |
| G31A U49A | 0.886 |
| G30U G48C | 0.416 |
| G30U G48A | 0.455 |
| G30U G48U | 0.393 |
| G30U C63G | 0.261 |
| G30U C63A | 0.181 |
| G31A U46A | 0.866 |
| G31U G50U | 0.754 |
| G31U G50C | 0.742 |
| G30C G47C | 0.696 |
| G30C G47U | 0.71 |

| Variant | self-cleavage |
| --- | --- |
| G30C G47A | 0.617 |
| G31C C34G | 0.382 |
| G31C C34U | 0.281 |
| G31C C57G | 0.151 |
| G30U U67A | 0.735 |
| G30U G58A | 0.284 |
| G30U G58U | 0.439 |
| G30U G58C | 0.302 |
| G30U C45G | 0.354 |
| G31U C32G | 0.177 |
| G31U C32U | 0.32 |
| G30U U62C | 0.211 |
| G30U U62G | 0.19 |
| G31C U69G | 0.444 |
| G31A G41U | 0.512 |
| G31A G41C | 0.349 |
| G31A A59C | 0.394 |
| G31A A59U | 0.441 |
| G30U C66U | 0.331 |
| G30U C66A | 0.278 |
| G30U C66G | 0.216 |
| G30C G58U | 0.579 |
| G30C G58C | 0.494 |
| G30C G58A | 0.359 |

| Variant | self-cleavage |
| --- | --- |
| G31A G48U | 0.931 |
| G31C C32A | 0.474 |
| G31C C32U | 0.235 |
| G30U C32A | 0.175 |
| G31A G56C | 0.523 |
| G31A G56U | 0.767 |
| G31A G56A | 0.702 |
| G31C C35A | 0.241 |
| G31C C35U | 0.189 |
| G31C A42G | 0.277 |
| G31C A42U | 0.18 |
| G31C U61C | 0.188 |
| G31C U61A | 0.179 |
| G31C U61G | 0.158 |
| G31A U44G | 0.585 |
| G31A U44A | 0.808 |
| G31A U44C | 0.749 |
| G31A U62C | 0.406 |
| G31A U62G | 0.434 |
| G31A U62A | 0.352 |
| G31A A40U | 0.533 |
| G31A A40G | 0.771 |
| G31A A40C | 0.218 |
